The record followed here is patent US20040141918.

For this data set, the system named is Int6 protein expressed in bacteria using the QUIA Express Type 4 vector, purified.
Sequence of Int6 protein expressed in bacteria using the QUIA Express Type 4 vector, purified (chain, as listed by the source): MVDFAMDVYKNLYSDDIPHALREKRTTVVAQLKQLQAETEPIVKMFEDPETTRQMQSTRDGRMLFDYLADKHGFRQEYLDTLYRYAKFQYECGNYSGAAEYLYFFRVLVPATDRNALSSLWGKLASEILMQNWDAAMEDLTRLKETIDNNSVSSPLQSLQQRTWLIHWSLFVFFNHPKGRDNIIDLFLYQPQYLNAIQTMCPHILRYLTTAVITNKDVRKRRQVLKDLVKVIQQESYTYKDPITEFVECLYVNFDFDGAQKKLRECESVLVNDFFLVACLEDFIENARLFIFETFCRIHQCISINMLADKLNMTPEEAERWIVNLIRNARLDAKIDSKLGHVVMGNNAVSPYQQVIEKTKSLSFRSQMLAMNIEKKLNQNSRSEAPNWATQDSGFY

Turning to protein kinase C, the “phosphorylation by PKC” value is on record as “shown to be phosphorylated by PKC (data not shown)”.
